Assay results: patent US20240270826A1
pEC50, pIC50, pKd: −log10 of the molar value. Values joined by “and” are separate entries in the source; they are usually repeats but may differ in a detail not shown here. Identical values can stand only once. Like-named read-outs stand apart in the source and are kept apart here.

Assays:
[1] = target: SARS-CoV-2 spike protein S on live virus, Wuhan (strain SARS-CoV-2/Canada/VIDO-01/2020) (SARS-CoV-2 (Wuhan)) (UniProt P0DTC2); assay: cell-based or functional assay
[2] = target: SARS-CoV-2 S on CHO-S cells (SARS-CoV-2) (UniProt P0DTC2); assay: flow cytometry, CHO-S cells
[3] = target: Human SARS-CoV-2_Wuhan S (SmT1) (SARS-CoV-2 (Wuhan)) (UniProt P0DTC2); assay: flow cytometry SVNA, VHH-Fc vs biotin-S binding to Vero E6 ACE2
[4] = target: Human SARS-CoV S (SARS-CoV) (UniProt P59594); assay: flow cytometry SVNA: VHH-Fc inhibits S binding to ACE2 on Vero E6 cells
[5] = target: Human SARS-CoV-2_Wuhan S (SmT1) (SARS-CoV-2 (Wuhan)) (UniProt P0DTC2); assay: as above
[6] = target: Human SARS-CoV-2_Wuhan S (SmT1) (SARS-CoV-2 (Wuhan)) (UniProt P0DTC2)
[7] = target: SARS-CoV-2 S1 (aa16-685) (Wuhan) (SARS-CoV-2 Wuhan) (UniProt P0DTC2); assay: SPR, antigen on chip
[8] = target: SARS-CoV-2 S1-RBD fused to human Fc (S1-RBD-Fc) (SARS-CoV-2 Wuhan; human); assay: SPR, antigen on chip
[9] = target: SARS-CoV-2 spike trimer S (Wuhan, SmT1) (SARS-CoV-2 Wuhan); assay: SPR, antigen on chip
[10] = target: SARS-CoV-2 S1 (aa16-685) (Wuhan) (SARS-CoV-2 Wuhan) (UniProt P0DTC2); assay: SPR, antigen on chip; remark: listed apart in the source
[11] = target: SARS-CoV-2 S1-RBD fused to human Fc (S1-RBD-Fc) (SARS-CoV-2 Wuhan; human); assay: SPR, antigen on chip; remark: listed apart in the source
[12] = target: SARS-CoV-2 spike trimer S (Wuhan, SmT1) (SARS-CoV-2 Wuhan); assay: SPR, antigen on chip; remark: listed apart in the source
[13] = target: Human SARS-CoV-2_Wuhan S (SmT1) (SARS-CoV-2 (Wuhan)) (UniProt P0DTC2); assay: SPR, VHH over immobilised S
[14] = target: SARS-CoV spike (S) (SARS-CoV) (UniProt P59594); assay: SPR, VHH over immobilised S
[15] = target: Human SARS-CoV-2_Wuhan S (SmT1) (SARS-CoV-2 (Wuhan)) (UniProt P0DTC2); assay: tandem SPR, immobilized S, orientation 1: VHH alone
[16] = target: Human SARS-CoV-2_Wuhan S (SmT1) (SARS-CoV-2 (Wuhan)) (UniProt P0DTC2); assay: flow cytometry SVNA, VHH vs biotin-S binding to Vero E6 ACE2

Question: Which results are given for VHH-72 VHH-Fc (Fc fusion)?
Answer: LVNA IC50 [1]: 8.46 nM; MN100 [1]: 1.25 nM; Bmax [2]: 8030; pEC50 [2]: 9.70; pIC50 [3]: 8.14; IC99 [3]: 238 nM; Imax % [3]: 57%; pIC50 [4]: 8.11; pIC50 [5]: 8.25

Question: VHH-72 VHH was tested. Which End 2nd inj (RU) [6] did it give?
Answer: Its End 2nd inj (RU) is 37.8 RU and 51.2 RU.

Question: What about the pKd [7] of the same substance?
Answer: Its pKd is 6.81.

Question: And the koff [7]?
Answer: Its koff is 0.146 s⁻¹.

Question: And the kon [7]?
Answer: The kon was 940000 M⁻¹ s⁻¹.

Question: What about the pKd [8] of the same substance?
Answer: Its pKd is 6.70.

Question: What about the koff [8] of the same substance?
Answer: Its koff is 0.134 s⁻¹.

Question: And the kon [8]?
Answer: Its kon is 667000 M⁻¹ s⁻¹.

Question: And the pKd [9]?
Answer: Its pKd is 6.85.

Question: What about the koff [9] of the same substance?
Answer: Its koff is 0.156 s⁻¹.

Question: What about the kon [9] of the same substance?
Answer: The kon was 1.1e+06 M⁻¹ s⁻¹.

Question: What about the pKd [10] of the same substance?
Answer: The pKd was 6.71.

Question: And the koff [10]?
Answer: The koff was 0.161 s⁻¹.

Question: What about the kon [10] of the same substance?
Answer: Its kon is 830000 M⁻¹ s⁻¹.

Question: What about the pKd [11] of the same substance?
Answer: Its pKd is 6.73.

Question: And the koff [11]?
Answer: Its koff is 0.126 s⁻¹.

Question: And the kon [11]?
Answer: Its kon is 682000 M⁻¹ s⁻¹.

Question: And the koff [12]?
Answer: Its koff is 0.15 s⁻¹.

Question: And the kon [12]?
Answer: The kon was 1.06e+06 M⁻¹ s⁻¹.

Question: And the MN100 [1]?
Answer: Its MN100 is 156 nM.

Question: What about the pKd [13] of the same substance?
Answer: Its pKd is 7.06.

Question: And the koff [13]?
Answer: The koff was 0.106 s⁻¹.

Question: What about the kon [13] of the same substance?
Answer: The kon was 1.23e+06 M⁻¹ s⁻¹.

Question: What about the pKd [14] of the same substance?
Answer: The pKd was 8.19.

Question: And the koff [14]?
Answer: Its koff is 0.00656 s⁻¹.

Question: What about the kon [14] of the same substance?
Answer: Its kon is 1.01e+06 M⁻¹ s⁻¹.

Question: What about the End 1st inj (RU) [15] of the same substance?
Answer: The End 1st inj (RU) was 25.8 RU.

Question: What about the pIC50 [16] of the same substance?
Answer: Its pIC50 is 7.23.

Question: What about the IC99 [16] of the same substance?
Answer: The IC99 was 9.41 µM.

Question: What about the Imax % [16] of the same substance?
Answer: The Imax % was 43%.
